Assay results published in publication PMC12417749.
Like-named read-outs stand apart in the source and are kept apart here.

Legend:
Assay in all cases: SPR
[1] = target: galactosylated Trastuzumab (TZM‐GT)
[2] = target: afucosylated Trastuzumab (TZM‐AF)
[3] = target: galactosylated Trastuzumab (TZM‐GT); remark: listed apart in the source
[4] = target: afucosylated Trastuzumab (TZM‐AF); remark: listed apart in the source

Row | Substance | Kd [1] | Kd [2] | Kd [3] | SPR signal at 300 nM receptor [3] | Kd [4] | SPR signal at 300 nM receptor [4]
1 | FcγRIIA (from UniProt P12318) (receptor) | 170 nM | 200 nM | 180 nM | 40 RU | 250 nM | 40 RU
2 | FcγRIIB (from UniProt P31994) (receptor) | 220 nM | 170 nM | 260 nM | 40 RU | 180 nM | 40 RU
